One series has as its system Beas-2B cells. The series can be described thus: Cell ELISA of MBP-ECP and MBP-ECP mt1 binding to cells. The class given is cell-based, human. The settings on record: MBP-ECP mt1 relative to MBP-ECP; 1 h at 4° C.
The test system of a further series is Beas-2B cell line. The series can be described thus: MTT cytotoxicity assay of ECP. The class given is cell-based, human. The settings on record: 37° C. 48 h, read-out: IC50 for cytotoxic ECP. The procedure: FIG. 12. Cytotoxicity of wild-type and mutant ECP. Beas-2B cells were incubated with increasing concentrations of wild-type and mt1 ECP at 37° C. for 48 h, followed by the MTT assay. The error bars show standard deviation among triplicate experiments.
The inhibition of lymphocyte and mammalian cell growth by ECP has been reported (Fan, T. C., et al. (2007) Traffic 8, 1778-1795; Maeda, T., et al. (2002) European Journal of Biochemistry 269, 307-316). As a physiological test, the cytotoxicity of ECP mt1 was monitored by MTT assay. The effect of ECP on the cell growth was determined by a colorimetric assay using 3-(4,5-dimethylthiazol-2-yl)-2,5-diphenyltetrazolium bromide (MTT) (US Biological, MA, USA). Cells were plated in a 96-well plate (5000 cells/well) and incubated at 37° C. overnight. Each sample was incubated with the indicated concentration (1-100 μM) of ECP. Forty-eight hours after treatment with ECP, MTT was added, and cell growth was monitored at A570 to measure the mitochondrial-dependent formation of a colored product.
Background: Tetrazolium assays rely on reduction of a dye to a coloured formazan, in cell work by metabolically active cells.

B1: ECP mt1: ECP mutant with R34A/W35A/R36A/K38A substitutions (protein, UniProt P12724 28-160, looked up, variant R34A W35A R36A K38A)
Eosinophil cationic protein: RPPQFTRAQWFAIQHISLNPPRCTIAMRAINNYAAACANQNTFLRTTFANVVNVCGNQSIRCPHNRTLNNCHRSRFRVPLLHCDLINPGAQNISNCTYADRPGRRFYVVACDNRDPRDSPRYPVVPVHLDTTI
B1 came in with a cell-binding activity in the series with Beas-2B cells of 50%. Also, the half-maximal inhibitory concentration (IC50) in the series with Beas-2B cell line is 38.5 µM.

Usually IC50 stands for the point on the concentration scale where inhibition reaches its midpoint.

The values are drawn from US8399416B2, “Method of using heparin binding motif for treating asthma” (National Tsing Hua University, priority 2008, dated 2013).
